In patent publication US20110311544A1:

Tests used:
[1] = target: CD71 (transferrin receptor) on human tumour cell lines (human) (UniProt P02786); test: flow cytometry, biotin-OKT9 on A375 cells after pre-incubation with control ascites NS1 at 37° C. (no competitor)
[2] = target: CD71 (transferrin receptor) on human tumour cell lines (human) (UniProt P02786); test: flow cytometry, biotin-OKT9 on A375 cells after pre-incubation with control ascites NS1 at 4° C. (no competitor)
[3] = target: CD71 (transferrin receptor) on human tumour cell lines (human) (UniProt P02786); test: quantitative flow cytometry on A375 cells, background control, medium FCS, with Tf-Fe
[4] = target: CD71 (transferrin receptor) on human tumour cell lines (human) (UniProt P02786); test: quantitative flow cytometry on A375 cells, background control, medium human AB serum, with Tf-Fe
[5] = target: CD71 (transferrin receptor) on human tumour cell lines (human) (UniProt P02786); test: quantitative flow cytometry on A375 cells, background control, medium FCS, no Tf-Fe
[6] = target: CD71 (transferrin receptor) on human tumour cell lines (human) (UniProt P02786); test: quantitative flow cytometry on A375 cells, background control, medium human AB serum, no Tf-Fe

Chain of UniProt P02786 (P02786 whole entry): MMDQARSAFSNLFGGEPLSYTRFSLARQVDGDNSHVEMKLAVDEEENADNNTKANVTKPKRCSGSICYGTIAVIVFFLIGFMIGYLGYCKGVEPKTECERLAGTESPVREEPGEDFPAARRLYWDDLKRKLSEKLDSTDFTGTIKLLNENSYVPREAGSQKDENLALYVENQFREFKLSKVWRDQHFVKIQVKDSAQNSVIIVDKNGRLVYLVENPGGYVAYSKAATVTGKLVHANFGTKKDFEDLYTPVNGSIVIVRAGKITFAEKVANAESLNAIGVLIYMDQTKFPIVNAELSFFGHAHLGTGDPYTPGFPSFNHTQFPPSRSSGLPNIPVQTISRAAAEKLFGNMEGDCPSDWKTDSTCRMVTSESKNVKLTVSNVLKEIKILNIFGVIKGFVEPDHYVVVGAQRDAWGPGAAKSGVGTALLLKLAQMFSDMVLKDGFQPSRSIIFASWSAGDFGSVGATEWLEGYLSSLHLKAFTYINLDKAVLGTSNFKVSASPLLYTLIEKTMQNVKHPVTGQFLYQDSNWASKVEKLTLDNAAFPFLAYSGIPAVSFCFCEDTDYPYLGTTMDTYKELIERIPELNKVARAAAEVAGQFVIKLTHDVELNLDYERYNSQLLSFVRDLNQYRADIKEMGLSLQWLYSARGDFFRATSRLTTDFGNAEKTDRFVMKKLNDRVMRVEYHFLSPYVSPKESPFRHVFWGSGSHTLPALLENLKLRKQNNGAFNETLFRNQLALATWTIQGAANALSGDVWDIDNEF

| Mean Fluorescence intensity [1] | Mean Fluorescence intensity [2] | Sites [3] | Sites [4] | Sites [5] | Sites [6] | Substance |
| --- | --- | --- | --- | --- | --- | --- |
| 8.84 | 6.53 | – | – | – | – | biotin-labeled anti-CD71 mAb OKT9 (antibody) |
| – | – | 3310 sites | 5790 sites | 3250 sites | 5790 sites | control ascites NS1 |
